# Experimental data published in patent US20110189154A1 (published 2011).
# T1: Tsa1 (S. cerevisiae 2-Cys peroxyredoxin) (S. cerevisiae, UniProt P34760 2-196)
# T1 construct: Endogenous yeast protein after H2O2 treatment of the cells; also called Tsa1 protein
# T1 sequence (looked up): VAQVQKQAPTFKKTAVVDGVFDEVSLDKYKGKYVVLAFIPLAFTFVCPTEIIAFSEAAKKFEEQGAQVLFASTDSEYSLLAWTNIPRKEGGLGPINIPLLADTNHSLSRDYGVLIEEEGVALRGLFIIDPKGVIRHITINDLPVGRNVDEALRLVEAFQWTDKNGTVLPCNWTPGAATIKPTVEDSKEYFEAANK
# Biological target: T1, Tsa1 (S. cerevisiae 2-Cys peroxyredoxin)
# Assay: Western blot of Srx1-HA after nonreducing/reducing SDS-PAGE (FIG. 7a)
# Experimental: FIG. 7 illustrates the interaction between Tsa1 and Srx1 in a covalent (disulfide bridge) and noncovalent manner; FIG. 7a: Western blotting of the HA-tagged Srx1 protein (lanes 1, 2 and 3) or of HA-tagged Srx1^C84S (lane 4) expressed in a wild-type strain (WT) (lanes 1, 2, 4) or in Δtsa1 cells (lane 3) treated for 15 min with H₂O₂ (500 μM), after SDS-PAGE electrophoresis carried out under reducing (R) (lane 2) or nonreducing (NR) (lanes 1, 3, 4) conditions; FIG. 7b: the proteins copurified with the Srx1 tagged with 6His (lanes 2, 4) or the untagged Srx1 (lanes 1, 3) under nonreducing conditions are separated by SDS-PAGE under nonreducing (lanes 1, 2) or reducing (lanes 3, 4) conditions and visualized by Coomassie blue staining. The protein bands are identified by MALDI-TOF mass spectrometry as indicated;
# (A) Cells containing a tagged (HA) copy of the Srx1 protein are treated with 500 μM of H₂O₂ for 15 minutes. […]
binder,measurement,value
"Srx1-HA (S. cerevisiae Srx1 with two HA epitopes at the C-terminal) (enzyme, not shown: small tags and cut ends, Two HA epitopes fused at the C-terminal of Srx1 (letters not given, left out). In the assay Cys84 forms an intermolecular disulfide bridge with Tsa1., also called HA-tagged Srx1 protein) MSLQSNSVKPTEIPLSEIRRPLAPVLDPQKIDAMVATMKGIPTASKTCSLEQAEAAASAGELPPVDVLGVRVKGQTLYYAFGGCHRLQAYDRRARETQNAAFPVRCRVLPATPRQIRMYLGSSLDIE",binding result,binds
